Test [1] concerns the target P22-StAv particles (in vitro assembled) (bacteriophage P22 | not stated) (UniProt P26747). The test can be described thus: SEC-MALS. In general terms: In gel filtration, larger molecules generally elute earlier.
The target in test [2] is P22 coat protein (bacteriophage P22) (UniProt P26747). Kind of test: SEC-MALS.

The source of these data is publication PMC6482854.

Chain of UniProt P26747 (P26747 whole entry): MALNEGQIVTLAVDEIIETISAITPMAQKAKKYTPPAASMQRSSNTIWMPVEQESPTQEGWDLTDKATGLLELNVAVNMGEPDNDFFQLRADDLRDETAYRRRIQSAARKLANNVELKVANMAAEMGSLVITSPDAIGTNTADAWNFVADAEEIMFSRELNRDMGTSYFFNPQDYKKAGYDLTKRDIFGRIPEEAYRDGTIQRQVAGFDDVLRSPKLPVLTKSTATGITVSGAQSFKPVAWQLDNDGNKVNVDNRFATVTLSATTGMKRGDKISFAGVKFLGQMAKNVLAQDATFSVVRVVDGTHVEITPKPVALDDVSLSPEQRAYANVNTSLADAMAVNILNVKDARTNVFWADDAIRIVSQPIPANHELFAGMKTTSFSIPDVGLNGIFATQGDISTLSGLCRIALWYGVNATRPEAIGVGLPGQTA

In turn, “biotinylated Cys-6xhis-SP(142–303)-GGGGG-ENLYFQS-GGGGG-GFP (from UniProt P26748 142-303)” came in with a stoichiometry N (copies per capsid) in test [1] of 36.
Turning to “6xhis-StAv(15–159)-GAAG-ENLYFQS-GAAG-SP(142–303) (from UniProt P26748 142-303)”, the copies of StAv-SP per capsid (copies per capsid) in test [2] amounted to 328.
